Read-outs that look alike come from different tables or passages of the source. Positions of bridges follow the written chain, without caps; N, C: chain ends. Non-standard residues stand in square brackets, D forms with d. *: point of attachment. NMeA = CN[C@@H](C)C(=O)O; Pyrrolidide = C1CCN(*)C1; dNMeA = CN[C@H](C)C(=O)O
Experiments:
Experiment in all cases: cell-based or functional assay
[1] = molecular target: T1, full-length human Regnase-1 with a FLAG tag on the N-terminal side and a biotin ligase BirA recognition … (human, UniProt Q5D1E8 1-599, biotinylated at the BirA recognition sequence when required)
T1 sequence: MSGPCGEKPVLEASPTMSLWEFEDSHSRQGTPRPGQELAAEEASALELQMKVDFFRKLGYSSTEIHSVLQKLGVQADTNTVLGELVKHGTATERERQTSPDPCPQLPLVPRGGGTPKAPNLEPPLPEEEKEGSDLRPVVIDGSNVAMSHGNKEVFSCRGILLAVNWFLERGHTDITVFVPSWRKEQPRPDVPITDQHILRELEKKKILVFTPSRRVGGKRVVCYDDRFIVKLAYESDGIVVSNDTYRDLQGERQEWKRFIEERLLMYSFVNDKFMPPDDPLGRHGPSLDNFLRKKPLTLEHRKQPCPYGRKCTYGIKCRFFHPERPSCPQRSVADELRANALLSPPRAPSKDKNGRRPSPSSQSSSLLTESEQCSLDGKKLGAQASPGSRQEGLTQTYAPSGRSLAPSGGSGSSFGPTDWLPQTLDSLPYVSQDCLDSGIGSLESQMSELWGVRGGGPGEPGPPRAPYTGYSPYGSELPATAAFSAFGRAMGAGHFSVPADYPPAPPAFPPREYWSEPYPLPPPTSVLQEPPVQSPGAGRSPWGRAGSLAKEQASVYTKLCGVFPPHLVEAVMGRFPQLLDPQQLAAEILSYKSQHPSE

[2] = molecular target: T2, C-terminal domain-deleted human Regnase-1 (amino acids 1 to 546) with N-terminal FLAG tag and C-terminal BirA … (human, UniProt Q5D1E8 1-546)
T2 sequence: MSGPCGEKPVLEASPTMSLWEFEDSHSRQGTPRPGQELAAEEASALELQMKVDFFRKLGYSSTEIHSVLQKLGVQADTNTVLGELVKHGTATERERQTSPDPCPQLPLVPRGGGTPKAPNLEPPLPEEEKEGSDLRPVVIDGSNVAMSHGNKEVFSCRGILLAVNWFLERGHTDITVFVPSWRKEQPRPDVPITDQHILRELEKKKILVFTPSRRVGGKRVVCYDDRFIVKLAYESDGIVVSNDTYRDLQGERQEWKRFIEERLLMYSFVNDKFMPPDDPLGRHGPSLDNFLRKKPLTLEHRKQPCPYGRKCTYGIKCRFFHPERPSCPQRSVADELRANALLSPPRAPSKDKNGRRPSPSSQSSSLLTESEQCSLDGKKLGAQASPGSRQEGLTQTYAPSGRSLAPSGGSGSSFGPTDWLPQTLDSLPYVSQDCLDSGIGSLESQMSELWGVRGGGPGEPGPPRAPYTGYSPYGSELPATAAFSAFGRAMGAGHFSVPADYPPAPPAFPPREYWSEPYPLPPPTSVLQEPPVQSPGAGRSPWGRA

[3] = molecular target: T1, full-length human Regnase-1 with a FLAG …; remark: listed apart in the source
[4] = molecular target: T2, C-terminal domain-deleted human …; remark: listed apart in the source
[5] = molecular target: T3, C-terminal human Regnase-1 (amino acids 301 to 599) with N-terminal FLAG tag and C-terminal BirA recognition … (human, UniProt Q5D1E8 301-599)
T3 sequence: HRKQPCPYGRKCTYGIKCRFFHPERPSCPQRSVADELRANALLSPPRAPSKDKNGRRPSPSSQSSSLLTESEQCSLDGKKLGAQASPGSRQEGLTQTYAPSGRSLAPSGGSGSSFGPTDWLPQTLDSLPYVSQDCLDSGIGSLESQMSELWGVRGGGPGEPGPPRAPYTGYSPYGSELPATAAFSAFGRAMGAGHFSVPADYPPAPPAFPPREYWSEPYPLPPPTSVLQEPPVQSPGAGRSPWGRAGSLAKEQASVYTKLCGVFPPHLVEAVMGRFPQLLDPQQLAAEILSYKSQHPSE

[6] = molecular target: T1, full-length human Regnase-1 with a FLAG …; remark: listed apart in the source
[7] = molecular target: T2, C-terminal domain-deleted human …; remark: listed apart in the source
[8] = molecular target: T3, C-terminal human Regnase-1 (amino acids …); remark: listed apart in the source

Binder	50% inhibition concentration, Regnase-1 phosphorylation by IKKβ (AlphaScreen) [1] [µM]	50% inhibition concentration, Regnase-1 phosphorylation by TBK1 (AlphaScreen) [1] [µM]	50% inhibition concentration, Regnase-1 phosphorylation by IKKβ (AlphaScreen) [2] [µM]	50% inhibition concentration, Regnase-1 phosphorylation by TBK1 (AlphaScreen) [2] [µM]	50% inhibition concentration, Regnase-1 phosphorylation by TBK1 (AlphaScreen) [3] [µM]	50% inhibition concentration, Regnase-1 phosphorylation by TBK1 (AlphaScreen) [4] [µM]	50% inhibition concentration, Regnase-1 phosphorylation by TBK1 (AlphaScreen) [5] [µM]	50% inhibition concentration, Regnase-1 phosphorylation by IKKβ (AlphaScreen) [6] [µM]	50% inhibition concentration, Regnase-1 phosphorylation by IKKβ (AlphaScreen) [7] [µM]	50% inhibition concentration, Regnase-1 phosphorylation by IKKβ (AlphaScreen) [8] [µM]
XTSWYKVNWGQD (HELM PEPTIDE1{[meA].T.S.W.Y.K.V.N.W.G.Q.D.[C1CCN([*:1])C1]}$PEPTIDE1,PEPTIDE1,1:R1-12:R3$$$V2.0; SMILES CC(C)[C@@H]1NC(=O)[C@H](CCCCN)NC(=O)[C@H](Cc2ccc(O)cc2)NC(=O)[C@H](Cc2c[nH]c3ccccc23)NC(=O)[C@H](CO)NC(=O)[C@H]([C@@H](C)O)NC(=O)[C@H](C)N(C)C(=O)C[C@@H](C(=O)N2CCCC2)NC(=O)[C@H](CCC(N)=O)NC(=O)CNC(=O)[C@H](Cc2c[nH]c3ccccc23)NC(=O)[C@H](CC(N)=O)NC1=O) [PP1]	28.1	54.5	> 62.1	> 62.1	54.5	> 62.1	> 62.1	28.1	> 62.1	> 62.1
[dNMeA]KHASAWYRIWD-Pyrrolidide (lactam N-12) [PP3]	4.6	3.9	8.3	5.7	3.9	5.7	7.1	4.6	8.3	6.8
XGYANSWYNIWD (HELM PEPTIDE1{[meA].G.Y.A.N.S.W.Y.N.I.W.D.[C1CCN([*:1])C1]}$PEPTIDE1,PEPTIDE1,1:R1-12:R3$$$V2.0; SMILES CC[C@H](C)[C@@H]1NC(=O)[C@H](CC(N)=O)NC(=O)[C@H](Cc2ccc(O)cc2)NC(=O)[C@H](Cc2c[nH]c3ccccc23)NC(=O)[C@H](CO)NC(=O)[C@H](CC(N)=O)NC(=O)[C@H](C)NC(=O)[C@H](Cc2ccc(O)cc2)NC(=O)CNC(=O)[C@H](C)N(C)C(=O)C[C@@H](C(=O)N2CCCC2)NC(=O)[C@H](Cc2c[nH]c3ccccc23)NC1=O) [PP2]	16.6	21.7	14	17.6	21.7	17.6	22.4	16.6	14	18.5
[NMeA]YIWDFFGDLD-Pyrrolidide (lactam N-11) [PP4]	19.5	61.9	8.3	44.9	61.9	44.9	35.9	19.5	8.3	12.8
XHSNAWYNIWD (HELM PEPTIDE1{[meA].H.S.N.A.W.Y.N.I.W.D.[C1CCN([*:1])C1]}$PEPTIDE1,PEPTIDE1,1:R1-11:R3$$$V2.0; SMILES CC[C@H](C)[C@@H]1NC(=O)[C@H](CC(N)=O)NC(=O)[C@H](Cc2ccc(O)cc2)NC(=O)[C@H](Cc2c[nH]c3ccccc23)NC(=O)[C@H](C)NC(=O)[C@H](CC(N)=O)NC(=O)[C@H](CO)NC(=O)[C@H](Cc2c[nH]cn2)NC(=O)[C@H](C)N(C)C(=O)C[C@@H](C(=O)N2CCCC2)NC(=O)[C@H](Cc2c[nH]c3ccccc23)NC1=O) [PP5]	23.6	24.2	20.4	19.1	24.2	19.1	40.4	23.6	20.4	31.3
XPNSSWFKIWD (HELM PEPTIDE1{[C[C@H](C(=O)[*:2])N(C)[*:1]].P.N.S.S.W.F.K.I.W.D.[C1CCN([*:1])C1]}$PEPTIDE1,PEPTIDE1,1:R1-11:R3$$$V2.0; SMILES CC[C@H](C)[C@@H]1NC(=O)[C@H](CCCCN)NC(=O)[C@H](Cc2ccccc2)NC(=O)[C@H](Cc2c[nH]c3ccccc23)NC(=O)[C@H](CO)NC(=O)[C@H](CO)NC(=O)[C@H](CC(N)=O)NC(=O)[C@@H]2CCCN2C(=O)[C@@H](C)N(C)C(=O)C[C@@H](C(=O)N2CCCC2)NC(=O)[C@H](Cc2c[nH]c3ccccc23)NC1=O) [PP6]	17	13.1	20.3	14.5	13.1	14.5	16.8	17	20.3	17.5
